Values of other authors in PMC12786138.
Where “and” joins values, the source holds several entries; their conditions need not be identical. Identical values can stand only once.

Tests used:
[1] = biological target: SIRPα (Mus musculus) (UniProt P97797); experiment: SPR
[2] = biological target: SIRPα (Homo sapiens) (UniProt P78324); experiment: SPR
[3] = biological target: CD47 (Homo sapiens) (UniProt Q08722); experiment: radiolabel competition
[4] = biological target: SIRPα (Homo sapiens) (UniProt P78324); experiment: colorimetric

Sequence of CD47 ECD (from UniProt Q08722) (Q08722 19-323): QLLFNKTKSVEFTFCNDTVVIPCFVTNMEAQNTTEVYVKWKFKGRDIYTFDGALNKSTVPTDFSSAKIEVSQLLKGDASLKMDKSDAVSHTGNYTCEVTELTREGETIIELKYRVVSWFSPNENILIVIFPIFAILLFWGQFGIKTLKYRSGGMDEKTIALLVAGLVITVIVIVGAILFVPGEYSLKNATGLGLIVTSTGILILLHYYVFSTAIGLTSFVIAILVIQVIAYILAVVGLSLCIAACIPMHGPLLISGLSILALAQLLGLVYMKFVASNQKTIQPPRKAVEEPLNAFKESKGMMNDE
Sequence of SIRPα (Homo sapiens) (P78324 31-373): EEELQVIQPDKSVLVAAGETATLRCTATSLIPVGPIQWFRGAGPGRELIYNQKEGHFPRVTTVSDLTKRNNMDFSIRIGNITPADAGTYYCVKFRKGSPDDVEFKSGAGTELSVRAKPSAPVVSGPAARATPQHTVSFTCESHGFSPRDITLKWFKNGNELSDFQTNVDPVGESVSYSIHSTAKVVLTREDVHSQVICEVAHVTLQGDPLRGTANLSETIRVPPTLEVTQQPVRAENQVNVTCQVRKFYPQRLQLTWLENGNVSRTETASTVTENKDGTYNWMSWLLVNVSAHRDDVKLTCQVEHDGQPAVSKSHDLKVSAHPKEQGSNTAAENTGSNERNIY
Sequence of SIRPα (Mus musculus) (P97797 32-373): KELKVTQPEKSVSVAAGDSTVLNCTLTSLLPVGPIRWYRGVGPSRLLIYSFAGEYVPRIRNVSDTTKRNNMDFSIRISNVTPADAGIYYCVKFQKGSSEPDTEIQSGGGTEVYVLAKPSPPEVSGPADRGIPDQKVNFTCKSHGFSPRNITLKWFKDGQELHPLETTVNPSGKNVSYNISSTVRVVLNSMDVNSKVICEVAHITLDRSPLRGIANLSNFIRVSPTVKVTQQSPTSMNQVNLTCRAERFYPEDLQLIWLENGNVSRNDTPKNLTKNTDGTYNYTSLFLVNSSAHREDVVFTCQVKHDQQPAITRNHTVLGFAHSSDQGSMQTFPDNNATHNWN
Sequence of CD47 ECD (from UniProt Q61735) (Q61735 19-303): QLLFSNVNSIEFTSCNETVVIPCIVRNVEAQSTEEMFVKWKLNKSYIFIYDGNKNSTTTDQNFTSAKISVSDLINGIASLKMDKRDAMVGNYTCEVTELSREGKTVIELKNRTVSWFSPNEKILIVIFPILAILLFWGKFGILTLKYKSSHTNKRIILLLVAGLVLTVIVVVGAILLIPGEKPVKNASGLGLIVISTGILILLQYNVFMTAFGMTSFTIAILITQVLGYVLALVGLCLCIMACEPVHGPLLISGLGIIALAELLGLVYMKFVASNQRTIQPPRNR
Sequence of CD47 (Homo sapiens) (Q08722 19-323): as the sequence (Q08722 19-323) above
Sequence of CD47 ECD-alkaline phosphatase ECD (Q08722 19-323): as above
Sequence of TSP1 (P07996 19-1170): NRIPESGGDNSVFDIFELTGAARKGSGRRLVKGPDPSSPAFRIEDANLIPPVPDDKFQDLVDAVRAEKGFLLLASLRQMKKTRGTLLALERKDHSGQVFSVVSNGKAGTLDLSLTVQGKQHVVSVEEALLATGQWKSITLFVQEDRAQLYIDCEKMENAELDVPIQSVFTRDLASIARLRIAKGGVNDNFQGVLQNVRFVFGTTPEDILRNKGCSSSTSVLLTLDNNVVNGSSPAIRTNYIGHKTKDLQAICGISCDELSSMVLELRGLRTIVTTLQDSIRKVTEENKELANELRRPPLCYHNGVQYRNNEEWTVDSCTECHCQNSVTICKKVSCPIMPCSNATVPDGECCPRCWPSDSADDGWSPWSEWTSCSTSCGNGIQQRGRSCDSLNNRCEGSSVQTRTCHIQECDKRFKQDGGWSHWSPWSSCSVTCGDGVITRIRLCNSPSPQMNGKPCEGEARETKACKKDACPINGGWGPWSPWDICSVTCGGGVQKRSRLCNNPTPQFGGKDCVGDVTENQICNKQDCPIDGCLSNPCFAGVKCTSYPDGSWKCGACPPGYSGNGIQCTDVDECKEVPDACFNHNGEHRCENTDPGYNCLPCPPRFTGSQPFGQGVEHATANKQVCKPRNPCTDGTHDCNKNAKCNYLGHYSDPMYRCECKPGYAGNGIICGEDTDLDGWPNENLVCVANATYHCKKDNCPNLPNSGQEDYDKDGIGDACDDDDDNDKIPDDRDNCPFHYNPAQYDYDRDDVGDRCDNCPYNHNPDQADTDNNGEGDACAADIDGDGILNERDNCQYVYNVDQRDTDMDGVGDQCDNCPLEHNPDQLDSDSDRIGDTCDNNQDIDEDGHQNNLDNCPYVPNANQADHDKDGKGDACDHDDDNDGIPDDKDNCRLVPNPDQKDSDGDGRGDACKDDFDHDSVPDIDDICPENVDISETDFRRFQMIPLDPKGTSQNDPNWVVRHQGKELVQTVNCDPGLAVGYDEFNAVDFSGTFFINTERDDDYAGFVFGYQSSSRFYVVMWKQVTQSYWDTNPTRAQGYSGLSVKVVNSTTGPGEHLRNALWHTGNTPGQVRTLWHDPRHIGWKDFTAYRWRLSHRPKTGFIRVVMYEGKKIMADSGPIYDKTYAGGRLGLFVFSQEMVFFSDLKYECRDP

Kd [1] | Kd [2] | Kd [3] | Kd [4] | Substance
4700 nM | > 30000 nM |  |  | CD47 ECD (from UniProt Q61735)
 |  | 0.012 nM |  | TSP1 (from UniProt P07996)
80 nM | 1200 nM and 1000 nM and 200 nM |  |  | CD47 ECD (from UniProt Q08722)
 |  |  | 10 nM | CD47 ECD-alkaline phosphatase ECD (from UniProt Q08722)
